This is an account of results in article PMC12331936, “Structural Insights into the Protein Mannosyltransferase from Mycobacterium tuberculosis reveal a WW-Domain-Like Protein Motif in Bacteria” (Communications Biology, 2025).

B1: D74A (protein, UniProt P9WN05 1-522, looked up, variant D74A)
Polyprenol-phosphate-mannose-- …: MTARPPESCVLAKDRPEEPVVPVVSPGPLVPVADFGPLDRLRGWIVTGLITLLATVTRFLNLGSLTDAGTPIFAEKHYAPQAWQVLNNHGVEDNPGYGLVVHPPVGKQLIAIGEAIFGYNGFGWRFTGALLGVVLVALVVRIVRRISRSTLVGAIAGVLLICDGVSFVTARTALLDGFLTFFVVAAFGALIVDRDQVRERMHIALLAGRSAATVWGPRVGVRWWRFGAGVLLGLACATKWSGVYFVLFFGAMALAFDVAARRQYQVQRPWLGTVRRDVLPSGYALGLIPFAVYLATYAPWFASETAIDRHAVGQAVGRNSVVPLPDAVRSLWHYTAKAFHFHAGLTNSAGNYHPWESKPWTWPMSLRPVLYAIDQQDVAGCGAQSCVKAEMLVGTPAMWWLAVPVLAYAGWRMFVRRDWRYAVVLVGYCAGWLPWFADIDRQMYFFYAATMAPFLVMGISLVLGDILYHPGQGSERRTLGLIVVCCYVALVVTNFAWLYPVLTGLPISQQTWNLEIWLPSWR
B2: D176E (protein, UniProt P9WN05 1-522, looked up, variant D176E)
Polyprenol-phosphate-mannose-- …: MTARPPESCVLAKDRPEEPVVPVVSPGPLVPVADFGPLDRLRGWIVTGLITLLATVTRFLNLGSLTDAGTPIFDEKHYAPQAWQVLNNHGVEDNPGYGLVVHPPVGKQLIAIGEAIFGYNGFGWRFTGALLGVVLVALVVRIVRRISRSTLVGAIAGVLLICDGVSFVTARTALLEGFLTFFVVAAFGALIVDRDQVRERMHIALLAGRSAATVWGPRVGVRWWRFGAGVLLGLACATKWSGVYFVLFFGAMALAFDVAARRQYQVQRPWLGTVRRDVLPSGYALGLIPFAVYLATYAPWFASETAIDRHAVGQAVGRNSVVPLPDAVRSLWHYTAKAFHFHAGLTNSAGNYHPWESKPWTWPMSLRPVLYAIDQQDVAGCGAQSCVKAEMLVGTPAMWWLAVPVLAYAGWRMFVRRDWRYAVVLVGYCAGWLPWFADIDRQMYFFYAATMAPFLVMGISLVLGDILYHPGQGSERRTLGLIVVCCYVALVVTNFAWLYPVLTGLPISQQTWNLEIWLPSWR
B3: R441A (protein, UniProt P9WN05 1-522, looked up, variant R441A)
Polyprenol-phosphate-mannose-- …: MTARPPESCVLAKDRPEEPVVPVVSPGPLVPVADFGPLDRLRGWIVTGLITLLATVTRFLNLGSLTDAGTPIFDEKHYAPQAWQVLNNHGVEDNPGYGLVVHPPVGKQLIAIGEAIFGYNGFGWRFTGALLGVVLVALVVRIVRRISRSTLVGAIAGVLLICDGVSFVTARTALLDGFLTFFVVAAFGALIVDRDQVRERMHIALLAGRSAATVWGPRVGVRWWRFGAGVLLGLACATKWSGVYFVLFFGAMALAFDVAARRQYQVQRPWLGTVRRDVLPSGYALGLIPFAVYLATYAPWFASETAIDRHAVGQAVGRNSVVPLPDAVRSLWHYTAKAFHFHAGLTNSAGNYHPWESKPWTWPMSLRPVLYAIDQQDVAGCGAQSCVKAEMLVGTPAMWWLAVPVLAYAGWRMFVRRDWRYAVVLVGYCAGWLPWFADIDAQMYFFYAATMAPFLVMGISLVLGDILYHPGQGSERRTLGLIVVCCYVALVVTNFAWLYPVLTGLPISQQTWNLEIWLPSWR
B4: S365T (protein, UniProt P9WN05 1-522, looked up, variant S365T)
Polyprenol-phosphate-mannose-- …: MTARPPESCVLAKDRPEEPVVPVVSPGPLVPVADFGPLDRLRGWIVTGLITLLATVTRFLNLGSLTDAGTPIFDEKHYAPQAWQVLNNHGVEDNPGYGLVVHPPVGKQLIAIGEAIFGYNGFGWRFTGALLGVVLVALVVRIVRRISRSTLVGAIAGVLLICDGVSFVTARTALLDGFLTFFVVAAFGALIVDRDQVRERMHIALLAGRSAATVWGPRVGVRWWRFGAGVLLGLACATKWSGVYFVLFFGAMALAFDVAARRQYQVQRPWLGTVRRDVLPSGYALGLIPFAVYLATYAPWFASETAIDRHAVGQAVGRNSVVPLPDAVRSLWHYTAKAFHFHAGLTNSAGNYHPWESKPWTWPMTLRPVLYAIDQQDVAGCGAQSCVKAEMLVGTPAMWWLAVPVLAYAGWRMFVRRDWRYAVVLVGYCAGWLPWFADIDRQMYFFYAATMAPFLVMGISLVLGDILYHPGQGSERRTLGLIVVCCYVALVVTNFAWLYPVLTGLPISQQTWNLEIWLPSWR
B5: R441L (protein, UniProt P9WN05 1-522, looked up, variant R441L)
Polyprenol-phosphate-mannose-- …: MTARPPESCVLAKDRPEEPVVPVVSPGPLVPVADFGPLDRLRGWIVTGLITLLATVTRFLNLGSLTDAGTPIFDEKHYAPQAWQVLNNHGVEDNPGYGLVVHPPVGKQLIAIGEAIFGYNGFGWRFTGALLGVVLVALVVRIVRRISRSTLVGAIAGVLLICDGVSFVTARTALLDGFLTFFVVAAFGALIVDRDQVRERMHIALLAGRSAATVWGPRVGVRWWRFGAGVLLGLACATKWSGVYFVLFFGAMALAFDVAARRQYQVQRPWLGTVRRDVLPSGYALGLIPFAVYLATYAPWFASETAIDRHAVGQAVGRNSVVPLPDAVRSLWHYTAKAFHFHAGLTNSAGNYHPWESKPWTWPMSLRPVLYAIDQQDVAGCGAQSCVKAEMLVGTPAMWWLAVPVLAYAGWRMFVRRDWRYAVVLVGYCAGWLPWFADIDLQMYFFYAATMAPFLVMGISLVLGDILYHPGQGSERRTLGLIVVCCYVALVVTNFAWLYPVLTGLPISQQTWNLEIWLPSWR
B6: L392A (protein, UniProt P9WN05 1-522, looked up, variant L392A)
Polyprenol-phosphate-mannose-- …: MTARPPESCVLAKDRPEEPVVPVVSPGPLVPVADFGPLDRLRGWIVTGLITLLATVTRFLNLGSLTDAGTPIFDEKHYAPQAWQVLNNHGVEDNPGYGLVVHPPVGKQLIAIGEAIFGYNGFGWRFTGALLGVVLVALVVRIVRRISRSTLVGAIAGVLLICDGVSFVTARTALLDGFLTFFVVAAFGALIVDRDQVRERMHIALLAGRSAATVWGPRVGVRWWRFGAGVLLGLACATKWSGVYFVLFFGAMALAFDVAARRQYQVQRPWLGTVRRDVLPSGYALGLIPFAVYLATYAPWFASETAIDRHAVGQAVGRNSVVPLPDAVRSLWHYTAKAFHFHAGLTNSAGNYHPWESKPWTWPMSLRPVLYAIDQQDVAGCGAQSCVKAEMAVGTPAMWWLAVPVLAYAGWRMFVRRDWRYAVVLVGYCAGWLPWFADIDRQMYFFYAATMAPFLVMGISLVLGDILYHPGQGSERRTLGLIVVCCYVALVVTNFAWLYPVLTGLPISQQTWNLEIWLPSWR
B7: D74E (protein, UniProt P9WN05 1-522, looked up, variant D74E)
Polyprenol-phosphate-mannose-- …: MTARPPESCVLAKDRPEEPVVPVVSPGPLVPVADFGPLDRLRGWIVTGLITLLATVTRFLNLGSLTDAGTPIFEEKHYAPQAWQVLNNHGVEDNPGYGLVVHPPVGKQLIAIGEAIFGYNGFGWRFTGALLGVVLVALVVRIVRRISRSTLVGAIAGVLLICDGVSFVTARTALLDGFLTFFVVAAFGALIVDRDQVRERMHIALLAGRSAATVWGPRVGVRWWRFGAGVLLGLACATKWSGVYFVLFFGAMALAFDVAARRQYQVQRPWLGTVRRDVLPSGYALGLIPFAVYLATYAPWFASETAIDRHAVGQAVGRNSVVPLPDAVRSLWHYTAKAFHFHAGLTNSAGNYHPWESKPWTWPMSLRPVLYAIDQQDVAGCGAQSCVKAEMLVGTPAMWWLAVPVLAYAGWRMFVRRDWRYAVVLVGYCAGWLPWFADIDRQMYFFYAATMAPFLVMGISLVLGDILYHPGQGSERRTLGLIVVCCYVALVVTNFAWLYPVLTGLPISQQTWNLEIWLPSWR
B8: E74D75: di-substitution of D74E75 with the reversed doublet (protein, UniProt P9WN05 1-522, looked up, variant D74E E75D)
Polyprenol-phosphate-mannose-- …: MTARPPESCVLAKDRPEEPVVPVVSPGPLVPVADFGPLDRLRGWIVTGLITLLATVTRFLNLGSLTDAGTPIFEDKHYAPQAWQVLNNHGVEDNPGYGLVVHPPVGKQLIAIGEAIFGYNGFGWRFTGALLGVVLVALVVRIVRRISRSTLVGAIAGVLLICDGVSFVTARTALLDGFLTFFVVAAFGALIVDRDQVRERMHIALLAGRSAATVWGPRVGVRWWRFGAGVLLGLACATKWSGVYFVLFFGAMALAFDVAARRQYQVQRPWLGTVRRDVLPSGYALGLIPFAVYLATYAPWFASETAIDRHAVGQAVGRNSVVPLPDAVRSLWHYTAKAFHFHAGLTNSAGNYHPWESKPWTWPMSLRPVLYAIDQQDVAGCGAQSCVKAEMLVGTPAMWWLAVPVLAYAGWRMFVRRDWRYAVVLVGYCAGWLPWFADIDRQMYFFYAATMAPFLVMGISLVLGDILYHPGQGSERRTLGLIVVCCYVALVVTNFAWLYPVLTGLPISQQTWNLEIWLPSWR
B9: phenylalanine was substituted for Y444: MtPMT with phenylalanine substituted for Y444 (protein, UniProt P9WN05 1-522, looked up, variant Y444F)
Polyprenol-phosphate-mannose-- …: MTARPPESCVLAKDRPEEPVVPVVSPGPLVPVADFGPLDRLRGWIVTGLITLLATVTRFLNLGSLTDAGTPIFDEKHYAPQAWQVLNNHGVEDNPGYGLVVHPPVGKQLIAIGEAIFGYNGFGWRFTGALLGVVLVALVVRIVRRISRSTLVGAIAGVLLICDGVSFVTARTALLDGFLTFFVVAAFGALIVDRDQVRERMHIALLAGRSAATVWGPRVGVRWWRFGAGVLLGLACATKWSGVYFVLFFGAMALAFDVAARRQYQVQRPWLGTVRRDVLPSGYALGLIPFAVYLATYAPWFASETAIDRHAVGQAVGRNSVVPLPDAVRSLWHYTAKAFHFHAGLTNSAGNYHPWESKPWTWPMSLRPVLYAIDQQDVAGCGAQSCVKAEMLVGTPAMWWLAVPVLAYAGWRMFVRRDWRYAVVLVGYCAGWLPWFADIDRQMFFFYAATMAPFLVMGISLVLGDILYHPGQGSERRTLGLIVVCCYVALVVTNFAWLYPVLTGLPISQQTWNLEIWLPSWR
B10: Y371A-L392A (protein, UniProt P9WN05 1-522, looked up, variant Y371A L392A)
Polyprenol-phosphate-mannose-- …: MTARPPESCVLAKDRPEEPVVPVVSPGPLVPVADFGPLDRLRGWIVTGLITLLATVTRFLNLGSLTDAGTPIFDEKHYAPQAWQVLNNHGVEDNPGYGLVVHPPVGKQLIAIGEAIFGYNGFGWRFTGALLGVVLVALVVRIVRRISRSTLVGAIAGVLLICDGVSFVTARTALLDGFLTFFVVAAFGALIVDRDQVRERMHIALLAGRSAATVWGPRVGVRWWRFGAGVLLGLACATKWSGVYFVLFFGAMALAFDVAARRQYQVQRPWLGTVRRDVLPSGYALGLIPFAVYLATYAPWFASETAIDRHAVGQAVGRNSVVPLPDAVRSLWHYTAKAFHFHAGLTNSAGNYHPWESKPWTWPMSLRPVLAAIDQQDVAGCGAQSCVKAEMAVGTPAMWWLAVPVLAYAGWRMFVRRDWRYAVVLVGYCAGWLPWFADIDRQMYFFYAATMAPFLVMGISLVLGDILYHPGQGSERRTLGLIVVCCYVALVVTNFAWLYPVLTGLPISQQTWNLEIWLPSWR

This data set concerns MtPMT. Format: cell-based. The note with it: MtPMT mutant expressed in M. smegmatis ΔMsPMT; ELLA, relative to WT (100%) and No PMT (0%).
With B1, the “FasC^His mannosylation / MtPMT enzymatic activity (ConA binding)” value is reported as “complete lack of mannosylation”.
As to B2, the “FasC^His mannosylation / MtPMT enzymatic activity (ConA binding)” value is “slightly restored mannosylation activity”.
In the case of B3, the “FasC^His mannosylation / MtPMT enzymatic activity (ConA binding)” value is “completely abolished FasC mannosylation”.
Regarding B4, the “FasC^His mannosylation / MtPMT enzymatic activity (ConA binding)” value was “only partially impacted FasC mannosylation”.
For B5, the “FasC^His mannosylation / MtPMT enzymatic activity (ConA binding)” value is reported as “completely abolished FasC mannosylation”.
In the case of B6, the “reduction (drop) of apparent FasC mannosylation level” value is given as 73%.
With B7, the “FasC^His mannosylation / MtPMT enzymatic activity (ConA binding)” value is “only marginally restored enzyme activity”.
Take B8: the “FasC^His mannosylation / MtPMT enzymatic activity (ConA binding)” value is “failed to restore Fasc^His mannosylation”.
The same measure, in the same setting: under B9 stands “almost half of the FasC mannosylation level remained”; under B10, “complete abolition of the mannosyl transferase activity”.
